{"source": "paper PMC3177193", "about": "(Nucleic Acids Research, 2011)", "key": {"[1]": {"target": "T1, Arabidopsis SERRATE core (SE core, residues 194-543), hexahistidine-tagged (Arabidopsis thaliana, UniProt Q9ZVD0 194-543)", "T1 sequence (looked up)": "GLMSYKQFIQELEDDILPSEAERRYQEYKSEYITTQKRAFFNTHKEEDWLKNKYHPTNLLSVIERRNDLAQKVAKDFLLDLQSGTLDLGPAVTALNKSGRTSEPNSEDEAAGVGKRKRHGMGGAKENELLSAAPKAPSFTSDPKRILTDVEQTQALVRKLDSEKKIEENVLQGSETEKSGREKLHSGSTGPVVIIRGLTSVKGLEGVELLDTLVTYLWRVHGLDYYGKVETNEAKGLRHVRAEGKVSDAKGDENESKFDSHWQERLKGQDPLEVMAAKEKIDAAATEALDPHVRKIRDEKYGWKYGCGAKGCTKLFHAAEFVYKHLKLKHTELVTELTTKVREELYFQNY", "assay": "pull-down"}, "[2]": {"target": "T2, GST-fused SE Middle domain (SE-Mid, residues 248-470) (Arabidopsis thaliana, UniProt Q9ZVD0 248-470)", "T2 sequence (looked up)": "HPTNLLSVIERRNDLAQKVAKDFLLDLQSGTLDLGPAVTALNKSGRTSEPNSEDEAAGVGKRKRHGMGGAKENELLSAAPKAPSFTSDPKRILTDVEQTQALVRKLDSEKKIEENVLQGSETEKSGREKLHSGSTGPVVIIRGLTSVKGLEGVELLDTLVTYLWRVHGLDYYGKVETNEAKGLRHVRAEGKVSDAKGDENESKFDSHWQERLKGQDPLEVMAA", "assay": "pull-down"}}, "data": [{"binder": "GST-fused HYL1 RBD1+2 (residues 15-172) (domain or fragment, Arabidopsis thaliana, UniProt O04492 15-172, looked up) VFKSRLQEYAQKYKLPTPVYEIVKEGPSHKSLFQSTVILDGVRYNSLPGFFNRKAAEQSAAEVALRELAKSSELSQCVSQPVHETGLCKNLLQEYAQKMNYAIPLYQCQKVETLGRVTQFTCTVEIGGIKYTGAATRTKKDAEISAGRTALLAIQSDT", "values": [{"measurement": "binding result", "setting": "[1]", "value": "binds"}]}, {"binder": "GST-fused HYL1 RBD2 (residues 100-172) (domain or fragment, Arabidopsis thaliana, UniProt O04492 100-172, looked up) GLCKNLLQEYAQKMNYAIPLYQCQKVETLGRVTQFTCTVEIGGIKYTGAATRTKKDAEISAGRTALLAIQSDT", "values": [{"measurement": "binding result", "setting": "[1]", "value": "binds"}]}, {"binder": "Non-tagged HYL1 RBD2 (residues 100-172) (domain or fragment, Arabidopsis thaliana, UniProt O04492 100-172, looked up) GLCKNLLQEYAQKMNYAIPLYQCQKVETLGRVTQFTCTVEIGGIKYTGAATRTKKDAEISAGRTALLAIQSDT", "values": [{"measurement": "binding result", "setting": "[2]", "value": "binds"}]}]}
